In article PMC3390401, “Phosphorylation-Dependent Interactions between Crb2 and Chk1 Are Essential for DNA Damage Checkpoint” (PLoS Genetics, 2012):
Non-standard residues stand in square brackets, D forms with d. No end group written: not given here. pS = N[C@@H](COP(=O)(O)O)C(=O)O

Columns and labels:
Chk1 = Chk1 (UniProt P34208); experiment: biotin-peptide streptavidin pull-down, Coomassie or immunoblot
[1] = molecular target: Crb2(67–85) peptide, unphosphorylated (S. pombe) (UniProt P87074); experiment: pull-down; Same peptide pull-down repeated; eluates and serial dilutions of Chk1-YFH input examined by immunoblotting with an anti-GFP antibody
[2] = molecular target: Crb2(67–85)pS80 peptide (S. pombe) (UniProt P87074); experiment: as above
[3] = molecular target: Crb2(67–85)pT73 peptide (S. pombe) (UniProt P87074); experiment: as above
[4] = molecular target: Crb2(67–85)pT73pS80 peptide (S. pombe) (UniProt P87074); experiment: as above
[5] = molecular target: Crb2(67–85)pT73pS80 peptide (S. pombe) (UniProt P87074); experiment: pull-down; Eluted Chk1-YFH incubated with 2 µg biotin-labeled peptide at 4°C for 2 h, peptides captured on streptavidin Dynabeads M-280, washed with lysis buffer (50 mM Hepes pH 7.5, 100 mM NaCl, 1 mM EDTA, 10% glycerol, 0.05% NP-40); eluates and input on 4%–20% SDS-PAGE, Coomassie staining
His-GST-Crb2(521–778) = molecular target: T1, His-GST-Crb2(521–778) (S. pombe, UniProt P87074 521-778); experiment: pull-down; His-GST-Crb2(521–778) incubated with H2A peptides, peptides pulled down by streptavidin Dynabeads, eluted by boiling in SDS loading buffer; 4%–20% SDS-PAGE, Coomassie staining; settings: both partners purified
T1 construct: Crb2, S. pombe, residues 521-778 (the BRCT domains); also called BRCTs in Crb2; source: E. coli, purified with Ni-NTA beads; not shown: His, N-terminal, kept; GST, N-terminal, kept
T1 sequence (looked up): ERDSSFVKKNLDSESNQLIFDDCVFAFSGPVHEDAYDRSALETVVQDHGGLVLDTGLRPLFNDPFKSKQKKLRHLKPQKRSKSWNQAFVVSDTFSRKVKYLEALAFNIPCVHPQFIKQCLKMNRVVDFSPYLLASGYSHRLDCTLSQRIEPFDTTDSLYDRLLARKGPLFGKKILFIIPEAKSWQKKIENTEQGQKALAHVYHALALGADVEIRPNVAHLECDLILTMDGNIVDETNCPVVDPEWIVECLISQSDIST

Crb2 67-85 (from UniProt P87074) pS80 peptide
other: share of Chk1 input pulled down (Chk1; reference: unphosphorylated peptide, sites S80): gained; reference lower than 0.08%

Crb2 67-85 (from UniProt P87074) pT73 peptide
other: share of Chk1 input pulled down (Chk1; reference: unphosphorylated peptide, sites T73): gained; reference lower than 0.08%

Crb2 67-85 (from UniProt P87074) pT73pS80 peptide
other: share of Chk1 input pulled down (Chk1; reference: pS80 peptide, sites T73): stronger; reference about 1% | other: share of Chk1 input pulled down (Chk1; reference: pT73 peptide, sites S80): same; reference about 7%

YFP-Flag-His6 (YFH)-tagged Chk1 (from UniProt P34208 1-496) (enzyme)
percent of input pulled down (% of the input) [1]: < 0.08 | percent of input pulled down (% of the input) [2]: 1 | percent of input pulled down (% of the input) [3]: 7 | percent of input pulled down (% of the input) [4]: 7 | percent of input pulled down (% of the input) [5]: > 5

B1: Hta1(120–132-pS129) peptide (peptide, UniProt P04909 120-132, looked up)
peptide: KTSGRTGKP[pS]QEL
notes: Histone H2A Hta1, S. pombe, residues 120-132; also called γH2A peptide; phosphorylated histone H2A peptide
binding result (His-GST-Crb2(521–778)): binds
